Laboratory results: the supplement of paper PMC7125110
± gives the standard error. Variants at the floor of the assay were thinned out.

B1: glmS ribozyme (parent)
chain: AUAAAAGCGCCAGAACUACAGAAAUGUAGUUGACGAGGAGGAGGUUUAUCGAAUUUUCGGCGGAUGCCUCCAAA

Key:
Conditions in all cases: with glucosamine-6-phosphate
glucosamine-6-phosphate [1] = variants of: B1; assay: self-cleavage kobs at 640 uM GlcN6P; higher = faster cleavage; RNA array
Method in brief: (§1)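 Using a hybridised Cy3 probe at 37 °C, barcoded ribozyme variants transcribed in situ by E. coli RNA polymerase on sequenced MiSeq chips were monitored across tiles imaged over ~14 h. The flow contained glucosamine-6-phosphate from 40 μM to 10 mM in HEPES/KCl/Mg(OAc)2 buffer. Signals were normalised to baseline and to non-cleaving reference variants before per-tile medians were fit to one- or two-exponential decays to yield kobs. Weighted Michaelis–Menten fits across concentrations gave kcat and KM.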

glucosamine-6-phosphate [2] = variants of: B1; assay: self-cleavage kobs at 2500 uM GlcN6P; higher = faster cleavage; RNA array
Method in brief: as §1

glucosamine-6-phosphate [3] = variants of: B1; assay: self-cleavage kobs at 10000 uM GlcN6P; higher = faster cleavage; RNA array
Method in brief: as §1

Variant	self-cleavage kobs at 640 uM GlcN6P (glucosamine-6-phosphate [1]) [s⁻¹]	self-cleavage kobs at 2500 uM GlcN6P (glucosamine-6-phosphate [2]) [s⁻¹]	self-cleavage kobs at 10000 uM GlcN6P (glucosamine-6-phosphate [3]) [s⁻¹]
A14U U47C C58G C68G	5.55e-05 ± 1.6e-05	0.000171 ± 4e-05	–
G32U A33U U56G	< 1e-05	–	–
A36G U47A	< 1e-05	–	–
G29C G43U A64U C68G	< 1e-05	–	–
A15G A48U C50U G60A C68G	0.000775 ± 0.00022	–	–
C11U G41U A48G	< 1e-05	–	–
U47G U55A C68G C71G	0.000142 ± 4.5e-05	–	4.14e-05 ± 1.5e-05
C8U C16A G35C A36U C71G	< 1e-05	< 1e-05	–
U31C G32A A39G	0.000252 ± 4.9e-05	–	0.0014 ± 0.00028
C11G A14G G41A G43C	< 1e-05	< 1e-05	–
U30A G40U U45A	4.42e-05 ± 2.1e-05	0.000226 ± 5.7e-05	–
A6C C34A G41C C68A	< 1e-05	< 1e-05	–
C58G U65C	< 1e-05	< 1e-05	–
U31C G32A U55A	0.000149 ± 2.6e-05	0.000644 ± 0.00017	–
G29A G37A	0.000124 ± 3.6e-05	0.000156 ± 5.7e-05	–
U45G U46A U57G	< 1e-05	–	–
G37A U46G C71U	6.59e-05 ± 3.1e-05	–	–
G32A C34U G60A	< 1e-05	< 1e-05	–
G41U U45A G51C C58G	< 1e-05	< 1e-05	–
G37C U49C	< 1e-05	< 1e-05	< 1e-05
A53U U54A U56A C70G	0.000134 ± 3e-05	8.57e-05 ± 1.9e-05	–
C11G C34U U69G	0.000508 ± 0.00017	–	–
G35U G40A A52U	< 1e-05	< 1e-05	–

Variant	self-cleavage kobs at 640 uM GlcN6P (glucosamine-6-phosphate [1]) [s⁻¹]	self-cleavage kobs at 2500 uM GlcN6P (glucosamine-6-phosphate [2]) [s⁻¹]	self-cleavage kobs at 10000 uM GlcN6P (glucosamine-6-phosphate [3]) [s⁻¹]
C8G A33U G41U	< 1e-05	–	–
A33C C61A A64U C68U	< 1e-05	–	–
G44U A64U C68A	< 1e-05	–	–
U49C U54A G63U	< 1e-05	< 1e-05	–
A48U G62U C70U	< 1e-05	–	–
G38A A39U U55G U69G	< 1e-05	–	–
C11U A33C U55G C58U	< 1e-05	–	–
G7U A14G G40U	< 1e-05	< 1e-05	–
G7A C10U C67G	8.24e-05 ± 3.5e-05	–	–
C10A C61G C67G	0.00401 ± 0.0011	–	–
A36C G51U C70G	0.000181 ± 5.1e-05	4.65e-05 ± 1.9e-05	–
A53U C58G C68U	9.02e-05 ± 3.1e-05	–	–
G37A A48U U54C	< 1e-05	–	–
A42C G44U A64G C68G	< 1e-05	–	–
C8A U31A G38C G40U C50G G60C C71A	< 1e-05	–	–
G13C A48C C68G	< 1e-05	–	–
C16U A42U C58A G59C G60C	< 1e-05	–	–
C8U C58U G62C A64U	< 1e-05	< 1e-05	–
G9C G40C U49G	< 1e-05	–	< 1e-05
A42U C58A C61G	< 1e-05	< 1e-05	–
A14U A15G C16A A52U A53U	< 1e-05	–	–
C10U A36U C70A	0.00107 ± 0.00039	–	–
A53G U54G U55G C61A C70U	0.000595 ± 0.00019	7.21e-05 ± 2.5e-05	–

Variant	self-cleavage kobs at 640 uM GlcN6P (glucosamine-6-phosphate [1]) [s⁻¹]	self-cleavage kobs at 2500 uM GlcN6P (glucosamine-6-phosphate [2]) [s⁻¹]	self-cleavage kobs at 10000 uM GlcN6P (glucosamine-6-phosphate [3]) [s⁻¹]
A42C U56C G60U	< 1e-05	–	–
A33G C50G C68G	0.00023 ± 6.4e-05	0.000213 ± 4e-05	–
G43U C70G C71A	< 1e-05	< 1e-05	–
G40A A42G G51U U57A U69C	< 1e-05	–	–
A39G G40U C58G	< 1e-05	–	–
C8U U30G U55C	< 1e-05	< 1e-05	–
A15C U30A U31G C34G C67G	5.05e-05 ± 2.3e-05	–	–
G32A A48U U65C	< 1e-05	–	–
A6G C11G C34U U45G	< 1e-05	–	–
A15G C16G C50G U54C	0.00183 ± 0.00059	–	–
G7A A14G G29U C70G	< 1e-05	< 1e-05	–
U30C G32U A64G	7.24e-05 ± 2.3e-05	0.000195 ± 5.7e-05	–
A14G C58G C71A	0.000191 ± 5.2e-05	9.06e-05 ± 1.5e-05	–
C10A U46C U54G	< 1e-05	–	–
G63U U65C	< 1e-05	< 1e-05	–
A14C C34G A64G	< 1e-05	< 1e-05	–
C8A A14G G29A A36U	< 1e-05	< 1e-05	–
G32A C50U C70G	0.000126 ± 4.6e-05	–	–
C34U G51C U54A	< 1e-05	< 1e-05	–
G7U C10U G43U	< 1e-05	–	–
C11G A36C G38U C50A U65G	< 1e-05	< 1e-05	< 1e-05
A15U G66C C68A	8.24e-05 ± 3.9e-05	6.09e-05 ± 2.8e-05	–
